Assay [1] concerns the target Theileria parva schizont antigen Tp2, full-length native, bacterially expressed with His-tag (Theileria parva (Muguga)). Briefly: SEC-MALS. On the technique in general: SEC sorts molecules by how far they enter the pores of the column.
The target is the same in assay [2]. Put plainly: SEC.

In publication doi:10.1101/2021.01.30.428938 one finds stoichiometry N data, which are given here for one substance.

Where “and” joins values, the source holds several entries; their conditions need not be identical. Equal entries are not always repeated.

One may read the stoichiometry N as a count of units in the complex or per binding partner.

As to “Theileria parva schizont antigen Tp2, full-length native, bacterially expressed with His-tag (natural protein)”, the stoichiometry N is 2 in assay [1]; 4 and 2 in assay [2].
